Laboratory results reported in patent publication US11278600B2, “Human alpha-galactosidase variants” (Codexis, Inc., priority 2014, dated 2022).

Tests used:
Assay type in all cases: biochemical
[1] = HTP-analysis of yeast culture supernatants, no challenge (MUGal hydrolysis); details: activity of the variant/activity of Rd4BB (SEQ ID NO: 15)
How it was run: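 Activity read as 4-methylumbelliferyl α-D-galactopyranoside hydrolysis: fluorescence (355/448 nm) after sodium carbonate stop, following 30-180 min at 37° C with 2 mM MUGal stock at pH 4.6–4.8. Enzyme source is unchallenged culture supernatant of INVSc1 yeast expressing GLA variants, grown 66-84 h at 30° C.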

[2] = HTP-analysis of supernatants pretreated with acid (MUGal hydrolysis); details: activity of the variant/activity of Rd4BB (SEQ ID NO: 15); challenge at pH 3.7
How it was run: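 Fluorescence of MUGal hydrolysis (Ex. 355 nm, Em. 448 nm) is read after sodium carbonate quench. The enzyme source is INVSc1 yeast culture supernatant, first exposed to pH 3.3-4.3 McIlvaine buffer at 37° C. for 1-3 h, then reacted at pH 4.8 for 30-180 minutes.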

[3] = HTP-analysis of supernatants pretreated with base (MUGal hydrolysis); details: activity of the variant/activity of Rd4BB (SEQ ID NO: 15); challenge at pH 9.65
How it was run: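 GLA variants were secreted by transformed INVSc1 yeast grown 66-84 h at 30° C. Supernatants were exposed to neutral-to-basic buffers (pH 7.0-9.7) at 37° C for 1-18 h, then assayed with MUGal in acidic citrate/McIlvaine buffer, with fluorescence read after quenching.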

| Molecule | Relative Activity of GLA Variants After No Challenge (NC) [1] | Relative Activity of GLA Variants After Challenge at pH 3.7 [2] | Relative Activity of GLA Variants After Challenge at pH 9.65 [3] |
| --- | --- | --- | --- |
| 416 (protein, Synthetic Polypeptide sequence of Variant No. 416 of mature Human GLA) LDNGLARTPTMGWLHWERFMCNLDCQEEPDSCISEKLFMEMAERMVSEGWKDAGYEYLCIDDCWMAPQRDSEGRLQADPQRFPHGIRQLANYVHSKGLKLGIYADVGNKTCAGFPGSFGYYDIDAQTFADWGVDLLKFDGCYCDSLENLADGYKHMSLALNGTGRSIVYSCEWPLYMWPFQKPNYTEIRQYCNHWRNFADIDDSWKSIKSILDWTSRNQERIVDVAGPGGWNDPDMLVIGNFGLSWDQQVTQMALWAIMAAPLFMSNDLRHISPQAKALLQDKDVIAINQDPLGKQGYQLRKGDNFEVWERPLSGDAWAVAIINRQEIGGPRSYTIPVASLGKGVACNPACFITQLLPVKRQLGFYNWTSRLKSHINPTGTVLLQLENTMQMSLKDLL | + (0.5 to 1.5 relative activity over Rd4BB (SEQ ID NO: 15)) | + (0.5 to 1.5 relative activity over Rd4BB (SEQ ID NO: 15)) | − (<0.5 relative activity over Rd4BB (SEQ ID NO: 15)) |
| 419 (protein, Synthetic Polypeptide sequence of Variant No. 419 of mature Human GLA) LDNGLARTPTMGWLHWERFMCNLDCQEEPDSCISEKLFMEMAERMVSEGWKDAGYEYLCIDDCWMAPQRDSEGRLQADPQRFPHGIRQLANYVHSKGLKLGIYADVGNKTCAGFPGSFGYYDIDAQTFADWGVDLLKFDGCYCDSLENLADGYKHMSLALNRTGREIVYSCEWPLYMWPFQKPNYTEIRQYCNHWRNFADIDDSWKSIKSILDWTSRNQERIVDVAGPGGWNDPDMLVIGNFGLSWDQQVTQMALWAIMAAPLFMSNDLRHISPQAKALLQDKDVIAINQDPLGKQGYQLRKGDNFEVWERPLSGDAWAVAIINRQEIGGPRSYTIPVASLGKGVACNPACFITQLLPVKRQLGFYNWTSRLKSHINPTGTVLLQLENTMQMSLKDLL | + (0.5 to 1.5 relative activity over Rd4BB (SEQ ID NO: 15)) | + (0.5 to 1.5 relative activity over Rd4BB (SEQ ID NO: 15)) | + (0.5 to 1.5 relative activity over Rd4BB (SEQ ID NO: 15)) |
| 418 (protein, Synthetic Polypeptide sequence of Variant No. 418 of mature Human GLA) LDNGLARTPTMGWLHWERFMCNLDCQEEPDSCISEKLFMEMAERMVSEGWKDAGYEYLCIDDCWMAPQRDSEGRLQADPQRFPHGIRQLANYVHSKGLKLGIYADVGNKTCAGFPGSFGYYDIDAQTFADWGVDLLKFDGCYCDSLENLADGYKHMSLALERTGRSIVYSCEWPLYMWPFQKPNYTEIRQYCNHWRNFADIDDSWKSIKSILDWTSRNQERIVDVAGPGGWNDPDMLVIGNFGLSWDQQVTQMALWAIMAAPLFMSNDLRHISPQAKALLQDKDVIAINQDPLGKQGYQLRKGDNFEVWERPLSGDAWAVAIINRQEIGGPRSYTIPVASLGKGVACNPACFITQLLPVKRQLGFYNWTSRLKSHINPTGTVLLQLENTMQMSLKDLL | + (0.5 to 1.5 relative activity over Rd4BB (SEQ ID NO: 15)) | + (0.5 to 1.5 relative activity over Rd4BB (SEQ ID NO: 15)) | − (<0.5 relative activity over Rd4BB (SEQ ID NO: 15)) |
| 417 (protein, Synthetic Polypeptide sequence of Variant No. 417 of mature Human GLA) LDNGLARTPTMGWLHWERFMCNLDCQEEPDSCISEKLFMEMAERMVSEGWKDAGYEYLCIDDCWMAPQRDSEGRLQADPQRFPHGIRQLANYVHSKGLKLGIYADVGNKTCAGFPGSFGYYDIDAQTFADWGVDLLKFDGCYCDSLENLADGYKHMSLALNSTGRSIVYSCEWPLYMWPFQKPNYTEIRQYCNHWRNFADIDDSWKSIKSILDWTSRNQERIVDVAGPGGWNDPDMLVIGNFGLSWDQQVTQMALWAIMAAPLFMSNDLRHISPQAKALLQDKDVIAINQDPLGKQGYQLRKGDNFEVWERPLSGDAWAVAIINRQEIGGPRSYTIPVASLGKGVACNPACFITQLLPVKRQLGFYNWTSRLKSHINPTGTVLLQLENTMQMSLKDLL | + (0.5 to 1.5 relative activity over Rd4BB (SEQ ID NO: 15)) | + (0.5 to 1.5 relative activity over Rd4BB (SEQ ID NO: 15)) | − (<0.5 relative activity over Rd4BB (SEQ ID NO: 15)) |
| 363 (protein, Synthetic Polypeptide sequence of Variant No. 363 of mature Human GLA) LDNGLARTPTMGWLHWERFMCNLDCQEEPDSCISEKLFMEMAERMVDEGWKDAGYEYLCIDDCWMAPQRDSEGRLQADPQRFPHGIRQLANYVHSKGLKLGIYADVGNKTCAGFPGSFGYYDIDAQTFADWGVDLLKFDGCYCDSLENLADGYKHMSLALNRTGRSIVYSCEWPLYMWPFQKPNYTEIRQYCNHWRNFADIDDSWKSIKSILDWTSRNQERIVDVAGPGGWNDPDMLVIGNFGLSWDQQVTQMALWAIMAAPLFMSNDLRHISPQAKALLQDKDVIAINQDPLGKQGYQLRKGDNFEVWERPLSGDAWAVAIINRQEIGGPRSYTIPVASLGKGVACNPACFITQLLPVKRQLGFYNWTSRLKSHINPTGTVLLQLENTMQMSLKDLL | + (0.5 to 1.5 relative activity over Rd4BB (SEQ ID NO: 15)) | + (0.5 to 1.5 relative activity over Rd4BB (SEQ ID NO: 15)) | + (0.5 to 1.5 relative activity over Rd4BB (SEQ ID NO: 15)) |
| 422 (protein, Synthetic Polypeptide sequence of Variant No. 422 of mature Human GLA) LDNGLARTPTMGWLHWERFMCNLDCQEEPDSCISEKLFMEMAERMVSEGWKDAGYEYLCIDDCWMAPQRDSEGRLQADPQRFPHGIRQLANYVHSKGLKLGIYADVGNKTCAGFPGSFGYYDIDAQTFADWGVDLLKFDGCYCDSLENLADGYKHMSGALNRTGRSIVYSCEWPLYMWPFQKPNYTEIRQYCNHWRNFADIDDSWKSIKSILDWTSRNQERIVDVAGPGGWNDPDMLVIGNFGLSWDQQVTQMALWAIMAAPLFMSNDLRHISPQAKALLQDKDVIAINQDPLGKQGYQLRKGDNFEVWERPLSGDAWAVAIINRQEIGGPRSYTIPVASLGKGVACNPACFITQLLPVKRQLGFYNWTSRLKSHINPTGTVLLQLENTMQMSLKDLL | + (0.5 to 1.5 relative activity over Rd4BB (SEQ ID NO: 15)) | + (0.5 to 1.5 relative activity over Rd4BB (SEQ ID NO: 15)) | − (<0.5 relative activity over Rd4BB (SEQ ID NO: 15)) |
| 421 (protein, Synthetic Polypeptide sequence of Variant No. 421 of mature Human GLA) LDNGLARTPTMGWLHWERFMCNLDCQEEPDSCISEKLFMEMAERMVSEGWKDAGYEYLCIDDCWMAPQRDSEGRLQADPQRFPHGIRQLANYVHSKGLKLGIYADVGNKTCAGFPGSFGYYDIDAQTFADWGVDLLKFDGCYCDSLENLADGYKHMSLALNQTGRSIVYSCEWPLYMWPFQKPNYTEIRQYCNHWRNFADIDDSWKSIKSILDWTSRNQERIVDVAGPGGWNDPDMLVIGNFGLSWDQQVTQMALWAIMAAPLFMSNDLRHISPQAKALLQDKDVIAINQDPLGKQGYQLRKGDNFEVWERPLSGDAWAVAIINRQEIGGPRSYTIPVASLGKGVACNPACFITQLLPVKRQLGFYNWTSRLKSHINPTGTVLLQLENTMQMSLKDLL | + (0.5 to 1.5 relative activity over Rd4BB (SEQ ID NO: 15)) | + (0.5 to 1.5 relative activity over Rd4BB (SEQ ID NO: 15)) | − (<0.5 relative activity over Rd4BB (SEQ ID NO: 15)) |
| 420 (protein, Synthetic Polypeptide sequence of Variant No. 420 of mature Human GLA) LDNGLARTPTMGWLHWERFMCNLDCQEEPDSCISEKLFMEMAERMVSEGWKDAGYEYLCIDDCWMAPQRDSEGRLQADPQRFPHGIRQLANYVHSKGLKLGIYADVGNKTCAGFPGSFGYYDIDAQTFADWGVDLLKFDGCYCDSLENLADGYKHMSLALNRTGRTIVYSCEWPLYMWPFQKPNYTEIRQYCNHWRNFADIDDSWKSIKSILDWTSRNQERIVDVAGPGGWNDPDMLVIGNFGLSWDQQVTQMALWAIMAAPLFMSNDLRHISPQAKALLQDKDVIAINQDPLGKQGYQLRKGDNFEVWERPLSGDAWAVAIINRQEIGGPRSYTIPVASLGKGVACNPACFITQLLPVKRQLGFYNWTSRLKSHINPTGTVLLQLENTMQMSLKDLL | + (0.5 to 1.5 relative activity over Rd4BB (SEQ ID NO: 15)) | ++ (>1.5 to 2.5 relative activity over Rd4BB (SEQ ID NO: 15)) | − (<0.5 relative activity over Rd4BB (SEQ ID NO: 15)) |
